Source: the nanobody polyreactivity screen of Harvey et al. (2022)

Assay: yeast display, Sf9 membrane polyspecificity reagent, FACS + sequencing; frameworks hold sequencing errors
Procedure, shortened: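 Polyreactivity labels are assigned by the sorting gate from which each nanobody was recovered. The gates were low and high (top ~1%), set on anti-HA fluorescence for expression and streptavidin fluorescence for reagent binding. Before sorting, galactose-induced (36–48 hours) yeast display cells were stained for 1 hour at 4 °C with 10% biotinylated, detergent-solubilized Sf9 membrane reagent.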

Sequence: QVQLVESGGGLVQAGGSLRLSCAASGRIFQYYAMGWYRQAPGKERELVAAINSSGGRTYYADSVKGRFTISRDNAKNTVYLQMNSLKPEDTAVYYCNAVLSTRGMDYWGQGTQVTVSS
- polyreactivity (PSR sort gate): high polyreactivity

Sequence: QVQLVESGGGLVQAGGSLRLSCAASGSTLTYNAMGWYRQAPGKERELVAAIDWDGDTTYYADSVKGRFTISRDNAKNTVYLQMNSLKPEDTAVYYCAAEFYSLGKAIYEYWGQGTQVTVSS
- polyreactivity (PSR sort gate): high polyreactivity

Sequence: QDQLVESGGGLVQAGGSLRLSCAASGSIIVRNAMGWYRQAPGKERELVAAISRSGSSTYYADSVKGRFTISRDNAKITVFCQMNSLKPEDTAVYYCAKRRPALRWIYYYWGQGTQVTVSS
- polyreactivity (PSR sort gate): high polyreactivity

Sequence: QVQLQESGGGLVHAGGILRLSCAASGTISFINMKGWYGQAPGRERELVASINFGANTHYADSVKGRFTIRRDNAKNTVYLQMNSLKPEDTAVSYCAARKVRFGVDYWGQGTQVTVSS
- polyreactivity (PSR sort gate): high polyreactivity

Sequence: QVQLVESGGGLVQAGGSLRLSCAASGSTFRRNAMGWDRQAPGKERELVATISPGARTNYADSVKGRFTISRDNAKNTVYLQMNSLKPEDTAVYYCNAEYTLLYPLYDYWGQGTQVTVSS
- polyreactivity (PSR sort gate): low polyreactivity

Sequence: QVQLVESGGGLVQAGGSLSLSCAATAFTFTYYAMGWYRQAPGKERELVAAITYSGGTTYYADSVKGRFTISRDNAKNTVYLQMNSLKPEDTAVYYCAAVPYYVLARSFYRYGYWGQGTQVTVSS
- polyreactivity (PSR sort gate): low polyreactivity

Sequence: QVQLVESGGGLVQAGRSLRLSCAASGFIFWRYAMGWYRQAPGKERELVAAISSGRNTKYADSVKGRFTISRDNAKTTVYLQMNSLKPEDTAVYYCAVLGKYLWSATNRFPGSYDSWGHGTQVTVSS
- polyreactivity (PSR sort gate): high polyreactivity

Sequence: QVQIVESGGGLVQAGGILRLSCAASGNTFGYYAMGWYRQAPGKEWELVAAISRGGGSTYYADSVKGRFTISRDNAKNTVYLQMNRLKPEDTAVYYCARRYRLSTSWSYRVGYWGQGTQVTVSS
- polyreactivity (PSR sort gate): high polyreactivity

Sequence: QVQLVESGGGLVQAGGSLRLTCAASGRTFALYAMGWYRQAPGKERELVAGITGRGGTTHYADSVKGRFTISRDYAKNTVYLQMNSLKPEDTAVYYCATTQSWRVPYRRLGYWGQGTQVTVSS
- polyreactivity (PSR sort gate): low polyreactivity

Sequence: QVQLVESGGGLVQAGGSLRLSCAASGRTFWENAMGWYRQAPGKERELVAAISGDSGSTYYADSVKGRFTISRDNAKNTVYLQMNSLKPEDTAVYYCAADSDRDDSYPYYYWGQGTQVTVSS
- polyreactivity (PSR sort gate): low polyreactivity

Sequence: QVQLEESGGGLDQAGGSLRLTCAASGSTFLFYAMGWYRQAPGKESELVAAIRWSGGSTYADSVKGRFTISRDNAKYTVYLPMNSLKPEDTAVYYCATTYRPTFRRHYKYWGQGTQVTVSS
- polyreactivity (PSR sort gate): low polyreactivity

Sequence: QVQLVESGGGLVQAGGSLRLICASSGLNFVVYAMGRSRPAPGKERELVAAISSGGGSTYYADSVKGRFTISRDNAKNSVYLQMNSQKPEDTEVYYCNAVDKLYYWRYDYWRQGTQVTVSS
- polyreactivity (PSR sort gate): low polyreactivity

Sequence: QVQLVESGGGLVQAGGSLRLSCAASGYIFYTYAMGWYRQAPGKERELVASIDSGGSTNYADSVKGRFTISRDNAKNTVYLQMNSLKPEDTAVYYCAADVIVRVYYYYYVLMDYWGQGTQVTVSS
- polyreactivity (PSR sort gate): low polyreactivity

Sequence: QVQLVESGGGLVQAGGSLRLSCAASGITFEDYAMGWYRQAPGKERELVAAITSNGGSTYYADSVKGRFTISRDNAKNTVYLQMNSLKPEDTAVYYCAATKYFSYYGRVSWADGGYWGQGTQVTVSS
- polyreactivity (PSR sort gate): low polyreactivity

Sequence: QVQLVESGGGLVQAGGSLRLSCAASGITFRSYAMGWYRQAPGKDRELVAAISRTGGRTYYADSVKGRFTISRDNAKNTVYLQMNTLKAEDTAVYYCAAGGYSPYSLVGYDYWGQGTQVTVSS
- polyreactivity (PSR sort gate): high polyreactivity

Sequence: QVQLVESGGGLVQAGGSLRLSCAASGITSNTYAKGWYRQATGKERELVATITSGGSTNYADSVKGRFTISRDNAKNTVYLQMNSLKPEDTAVYFCNREYWLPTQFDYWGQGTQVTVSS
- polyreactivity (PSR sort gate): low polyreactivity

Sequence: QVQLVESGGGLVQAGGSRRLSCAASGRIFGVYAMGWYRQAPGKERELVAAIDRRGGRTYYADSVKGRFTISRDNAKNTVYLQMNSLKPEDTAVYYFATARYRADMGYWGQGTQVTVSS
- polyreactivity (PSR sort gate): high polyreactivity

Sequence: QVQLVESGGGLVQAGGSLRLSCAASGRIIGYYAMGWYRQAPGKERELVAAISRRGGSTYYADSVKGRFTISRDNAKNTVYLQMNSLKPEDTAVYYCNADRVLTRPRYDYWGQGTQVTVSS
- polyreactivity (PSR sort gate): low polyreactivity

Sequence: QVQLVESGGGLVQAGGSLRLSCAASGRIFRINGMGWYRQAPGKEREFVAAITSGGGTYYADSVKGRFTISRDNAKNTVYLQMNSLKPEDTAVYYCAVRRRYGDDYWGQGTQVTVSS
- polyreactivity (PSR sort gate): high polyreactivity

Sequence: QVQLVESGGGLVQAGGSLRLSCAASGSIFYYYTMGWYRQAPGKERELVAAITWSGGRTYYADSVKGRFTISRDNAKNTVYLQMNSLKPEDTAVYYCNVDPYYGGIGDYWGQGTQVTVSS
- polyreactivity (PSR sort gate): high polyreactivity

Sequence: QVQLVESGGGLVQAGGSLRISCAASGGIFNYYTMGWYRQAPGKERELVAAINSSGGNTHYADSVKGRFTISRDNAKNTVYLQMNSLKPEDTAVYYCNADARSVWFYRVDYWGQGTQVTVSS
- polyreactivity (PSR sort gate): low polyreactivity

Sequence: QVQLVESGGGLVQAGGSLRLSCAASGFTFTPYGMGWYRQAPGKERALVAAITWNGGRTYYADSVKGRFTISRDNAKNTVYLQMNSLKPEDTAVDYCAAVAWSWQKRGYWGQGTQVTVSS
- polyreactivity (PSR sort gate): high polyreactivity

Sequence: QVQLVESGGGLVQAGGSLRLSCAASGSIFFDYAMGWYRQAPGKERELVAAINSGGTTNYADSVKGRFTISRDNAKNTVYLQMIQPETGRYRGLLLQRLPGYLRWYRWYDYWGQGTQVSVSS
- polyreactivity (PSR sort gate): low polyreactivity

Sequence: QVQLVESGGGLVQAGGSLRLSCASSGSTFYGNAMGWYRQEPGKERELVASISSGGTNYADSVKGRFTISRDNAKNTVYLQMNSLKPEDTAVYYLNADYIDTFRGFDYWGQGTQVTVSS
- polyreactivity (PSR sort gate): low polyreactivity

Sequence: QVQLVESGVGLVQAGGSLRLSCAAYGSTFVSNAMGWDRQAPGKERELVAAISTSGGSTYYADSVKGRFTISRDNAKNTVYLQMNSLKPEDTAVYYCAKLLARGFRIWQDYDYWGQGTQVTVSS
- polyreactivity (PSR sort gate): low polyreactivity

Sequence: QVQLVESGGGLVQAGGSLRLSCAASGRIFYLYAMGWYRQAPGKERELVAAITGGGSTSYADSVKGRFTISRDNAKNTVYLQMNSLKPEDTAVYYCATDRLTYTKYGYWGQGTQVTVSS
- polyreactivity (PSR sort gate): low polyreactivity

Sequence: QVQLVESGGGLVQAGGSLRLSCAASGSTIGGYAMGWYRQAPGKERELVAAISWDDVRTYYADSVKGRFTISRDNAKNTVYLLMNSLKPEDTAVYYCNTDGLIAIRGLWWVEYDYWGQGTQVTVSS
- polyreactivity (PSR sort gate): low polyreactivity

Sequence: QVQLVESGGGLVQAGGSLRLSCAASGRISIKNAMGWYRQAPGKERELVAAIRWSADSTYYADSVKGRFTISRDNAKNTVYLQMNSLIPEDTAVYYCAATGRLRYYWGQGTQVTVSS
- polyreactivity (PSR sort gate): high polyreactivity

Sequence: QVQLVESGGGLVQAGGSLRLSCAASGFTIYFKAMGWYRQAPGKERELVAAISFSGGGTYYADSVKGRFTISRDNAKNTFYLQMNSLKPEDTAVYYCAADWYDWVSTYDYWGQGTQVTVSS
- polyreactivity (PSR sort gate): low polyreactivity

Sequence: QVQLVESGGGLVQAGGSLRLSCASSGNIFVAYAMGWYRQAPGKERELVAAITSGGRTYADSVKGRFTISRDNAKNTVYLQMNSLKPEDTAVYYCNADPYYVYLGYYDRYYSGYGYWGQGTQVTVSS
- polyreactivity (PSR sort gate): low polyreactivity

Sequence: QVQLVESGGGLVQAGGSLRLSCAASGLTFSRNAMGGYRQAPGKERELVAGISVSGSITFYADSVKGRFTISRDNAKNTVYLQMNSLKPEDTAVYYCAARYRYRYTPSVTGYDYWGQGTQVTVSS
- polyreactivity (PSR sort gate): high polyreactivity

Sequence: QVQLVESGGGLVQAGGSLRLSCAASGRIFYPYAMGWYRQAPGKEREFVATITASGGSTYYADSVKGRVTISRDNAKNTVYFQMNSLKPEDTAVYYCAADDPGYYQVEYWGQGTQVTVSS
- polyreactivity (PSR sort gate): high polyreactivity

Sequence: QVQLVESGGGLVQAGGSLRLSCAASGSIFFSYAMGWYRQAPGKEREFVAAINSDDASTYADSVKGRFTISRDNAKNTVYLQMNSLKPEDTAVYYCAASFLWSWYDYWGQGTQVTVSS
- polyreactivity (PSR sort gate): low polyreactivity

Sequence: QVQLVESGGGLVQAGGSLRLSCAASGYTFNYYAMGWYRQAPGKEREFVASTYADSVKGRFTISRDNAKNTVYLQMNSLKPEDTAVYYCNARNLGRYLVLSYGYWRQGTQVTVSS
- polyreactivity (PSR sort gate): low polyreactivity

Sequence: QVQLVESGGGLVQAGGSLRLSCAASGFIFGGYAMGWYRQAPGKERELVAAISRSGGSTYYADSVKGRFTISRDNGKNTLNLKMNSLKREDTAVYYCNAVPRRQGFNYWGQGTQVTVSS
- polyreactivity (PSR sort gate): high polyreactivity

Sequence: QVQLVESGGGLVQAGGSLRLSCAASGSNFNYYTMGWYRQAPGKERELVAAITDSGGSTYYADSVMGRFTISRDNAKNTVYLQMNSLIPEDTAVYYCAAAVPELYEVRYHADYWGQGTQVTVST
- polyreactivity (PSR sort gate): low polyreactivity

Sequence: QVQLVESGGGLVQAGGSLRLSCAASGRIFYRYAMGWYRQAPGKERELVAAISGRGGSTYYADSVKGRFTISRDNAKNTVYLQMNSLKPEDTAVYYCNALPVYRSLAYEVDYWGQGTQVTVSS
- polyreactivity (PSR sort gate): high polyreactivity

Sequence: QVQLVESGGGLVQAGGSLRLSCAASGFIFWSNAMGWYRQAPGKERELVAAISWSGGSTYYADSVKGRFTISRDNAKNTVYLQMNSLKPEDTAVYYCNTLNVQRDEHDYWGQGTQVTVSS
- polyreactivity (PSR sort gate): high polyreactivity

Sequence: QVQLVESGGGLVQAGGSLRLICDASGRTFGPYVMRLYRQAPGKERELVASISSADSRYYADSVKGRFTISRDNAKNTVYLQMNSLKPEDTAVYYCAAPSVGYYDPTDFDYWGQGTQVTVSS
- polyreactivity (PSR sort gate): low polyreactivity

Sequence: QVQLVESGGGLVQAGGSLRLSCAASGSTFGSYAMGWYRQAPGKERELVAAISRGGGSTYYADSVKGRFTISRDNAKNTVYLQMKSLKPEDTAVYYCAASFSRYGLVLYSIEDYWGQGTQVTVSS
- polyreactivity (PSR sort gate): high polyreactivity

Sequence: QVQLVESGGGLVQAGGSLRLSCAASGIIFFPYPMGWYRQAPGKERELVASINISDSSTYYADSVKGRFTISRDTAKNTVDLQMNSLKPEDTAVYYCAADNRGDSWYWHGYWGQGTQVSVSS
- polyreactivity (PSR sort gate): low polyreactivity

Sequence: QVQLVESGGGLVQAGGSLRLSCAASGIIFGGYAMGWYGQAPGKERELVASITWGGGSTYYADSVKGRFTISRDNAKNTVYLQMNSLKPEDTAVYYCNKRGYPGSDWGQGTQVTVSS
- polyreactivity (PSR sort gate): low polyreactivity

Sequence: QVQLVESGGGLVQAGGSLRLSCAASGSTFNNAMGWYRQAPGKERELVAAITRSGVRTYYADSVKGRFTISRDNAKNTVYLQMNSLKPEDTAVYYCAAGFQSRRYYAGYEDWGQGTQVSVSS
- polyreactivity (PSR sort gate): high polyreactivity
